In patent publication US20180339041A1 (Kyowa Kirin, published 2018):
Changes are numbered by the printed parent chain. Names and notes keep the numbering of the source.

T1: C-terminally FLAG-tagged human Gas6 recombinant protein (hGas6-F) (human, UniProt Q14393 31-678, gamma-carboxylated glutamic acid residues in the Gla domain (producer cells co-express rat VKOR and human GGCX); positions not given)
T1 construct: also called human Gas6-F; human Gas6 protein
T1 sequence: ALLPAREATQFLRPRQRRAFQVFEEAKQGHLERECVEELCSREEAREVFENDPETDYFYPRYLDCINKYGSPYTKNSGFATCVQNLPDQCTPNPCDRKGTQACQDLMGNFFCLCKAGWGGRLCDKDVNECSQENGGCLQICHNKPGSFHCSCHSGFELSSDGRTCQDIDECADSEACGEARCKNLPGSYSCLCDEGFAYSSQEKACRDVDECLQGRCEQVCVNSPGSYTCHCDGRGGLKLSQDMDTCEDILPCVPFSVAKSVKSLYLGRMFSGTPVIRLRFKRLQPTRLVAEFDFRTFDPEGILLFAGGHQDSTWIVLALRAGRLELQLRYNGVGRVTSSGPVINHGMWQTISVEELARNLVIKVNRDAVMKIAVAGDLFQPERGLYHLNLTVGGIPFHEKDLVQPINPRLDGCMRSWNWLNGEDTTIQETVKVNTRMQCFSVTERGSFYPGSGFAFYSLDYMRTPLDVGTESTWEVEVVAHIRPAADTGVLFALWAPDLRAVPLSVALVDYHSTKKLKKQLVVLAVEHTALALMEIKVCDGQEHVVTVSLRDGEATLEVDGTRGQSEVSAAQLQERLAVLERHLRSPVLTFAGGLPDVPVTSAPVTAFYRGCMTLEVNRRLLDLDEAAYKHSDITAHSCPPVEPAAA

B1: hzKM5321 LV6HV1 antibody (antibody, V domains shown)
VH: QVHLVQSGSELKKPGASVKISCKASGYTFTNYGMNWVRQAPGQGLKWMGWINTNTGEPTYTEEFKGRFVFSLDTSVTTSYLQISTLKAEDTAVYFCARDEGWFVYWGQGTLVTVSS
VL: ETTLTQSPSSLSVSTGDRVTITCITSTDIDDDMNWYQQKPGKPPKLLISEGNTLRPGVPSRFSSSGSGTDFTLTISSTQPEDFADYYCLQTDSVPLTFGQGTKVEIK
notes: Humanized; variant human IgG4 constant region (EU S228P, L235E, R409K), human kappa; also called B-22; LV6HV1
B2: hzKM5321 LV0HV7 antibody (antibody, V domains shown)
VH: B1 VH with V2I, S9P, R38K, S79A, V93T, V112I
VL: B1 VL with V13A, T15V, P43A, S64G, T78L, D85T
notes: Humanized; variant human IgG4 constant region (EU S228P, L235E, R409K), human kappa; also called B-12; LV0HV7
B3: hzKM5321 LV4HV7 antibody (antibody, V domains shown)
VH: B1 VH with V2I, S9P, R38K, S79A, V93T, V112I
VL: B1 VL with P43A, S64G, L73F, D85T
notes: Humanized; variant human IgG4 constant region (EU S228P, L235E, R409K), human kappa; also called B-17; LV4HV7
B4: hzKM5321 LV1aHV0 antibody (antibody, V domains shown)
VH: B1 VH with K46E
VL: B1 VL with V13A, T15V, S64G, T78L, D85T
notes: Humanized; variant human IgG4 constant region (EU S228P, L235E, R409K), human kappa; also called B-03; LV1aHV0
B5: hzKM5321 LV1aHV7 antibody (antibody, V domains shown)
VH: B1 VH with V2I, S9P, R38K, S79A, V93T, V112I
VL: B1 VL with V13A, T15V, S64G, T78L, D85T
notes: Humanized; variant human IgG4 constant region (EU S228P, L235E, R409K), human kappa; also called B-13; LV1aHV7
B6: hzKM5321 LV1cHV0 antibody (antibody, V domains shown)
VH: B1 VH with K46E
VL: B1 VL with T15V, P43A, S64G, T78L, D85T
notes: Humanized; variant human IgG4 constant region (EU S228P, L235E, R409K), human kappa; also called B-05; LV1cHV0
B7: hzKM5321 LV3HV7 antibody (antibody, V domains shown)
VH: B1 VH with V2I, S9P, R38K, S79A, V93T, V112I
VL: B1 VL with V13A, P43A, S64G
notes: Humanized; variant human IgG4 constant region (EU S228P, L235E, R409K), human kappa; also called B-16; LV3HV7
B8: hzKM5321 LV1bHV7 antibody (antibody, V domains shown)
VH: B1 VH with V2I, S9P, R38K, S79A, V93T, V112I
VL: B1 VL with V13A, T15V, P43A, S64G, T78L
notes: Humanized; variant human IgG4 constant region (EU S228P, L235E, R409K), human kappa; also called B-14; LV1bHV7
B9: hzKM5321 LV4HV0 antibody (antibody, V domains shown)
VH: B1 VH with K46E
VL: B1 VL with P43A, S64G, L73F, D85T
notes: Humanized; variant human IgG4 constant region (EU S228P, L235E, R409K), human kappa; also called B-07; LV4HV0
B10: hzKM5321 LV1bHV0 antibody (antibody, V domains shown)
VH: B1 VH with K46E
VL: B1 VL with V13A, T15V, P43A, S64G, T78L
notes: Humanized; variant human IgG4 constant region (EU S228P, L235E, R409K), human kappa; also called B-04; LV1bHV0
B11: hzKM5321 LV1cHV7 antibody (antibody, V domains shown)
VH: B1 VH with V2I, S9P, R38K, S79A, V93T, V112I
VL: B1 VL with T15V, P43A, S64G, T78L, D85T
notes: Humanized; variant human IgG4 constant region (EU S228P, L235E, R409K), human kappa; also called B-15; LV1cHV7
B12: hzKM5321 LV3HV0 antibody (antibody, V domains shown)
VH: B1 VH with K46E
VL: B1 VL with V13A, P43A, S64G
notes: Humanized; variant human IgG4 constant region (EU S228P, L235E, R409K), human kappa; also called B-06; LV3HV0
B13: hzKM5320 LV5HV3a antibody (antibody, V domains shown)
VH: QVQLVQSGSELKKPGASVKVSCKASGYTFTNYGMNWVRQAPGQGLKWMGWINTETGEPTYSDDFKGRFVFSLDTSVSTAYLQISSLKAEDTATYFCAREDGYYGTLDYWGQGTTVTVSS
VL: DIVMTQSPDSLAVSLGERVTINCKASQSVSNDVAWYQQKPGQSPKVLIYYASNRYTGVPDRFSGSGSGTDFTFTISSVQAEDVAVYFCQQDYSSPWTFGQGTKLEIK
notes: Humanized; variant human IgG4 constant region (EU S228P, L235E, R409K), human kappa; also called A-21
B14: hzKM5320 LV2bHV8 antibody (antibody, V domains shown)
VH: B13 VH with V2I, S9P, V20I, R38K, S77T
VL: B13 VL with I2V, L15A, V46L, V78L, F87Y
notes: Humanized; variant human IgG4 constant region (EU S228P, L235E, R409K), human kappa; also called A-14
B15: hzKM5320 LV5HV4 antibody (antibody, V domains shown)
VH: B13 VH with S9P
VL: B13 VL
notes: Humanized; variant human IgG4 constant region (EU S228P, L235E, R409K), human kappa; also called A-24
B16: hzKM5320 LV5HV0 antibody (antibody, V domains shown)
VH: B13 VH with K46E, T93V, F95Y
VL: B13 VL
notes: Humanized; variant human IgG4 constant region (EU S228P, L235E, R409K), human kappa; also called A-08

target: T1, C-terminally FLAG-tagged human Gas6 …; assay: SPR Biacore T100, captured antibody, Gas6 analyte, first test
Experimental: An anti-human IgG antibody was immobilized on a CM5 sensor chip (manufactured by GE Healthcare Japan Corp.) using Human Antibody Capture Kit (manufactured by GE Healthcare Japan Corp.) according to the attached manual. Each test antibody adjusted to 1 μg/mL was added for 10 seconds at a flow rate of 10 μL/min to flow cells. […] The measurement was performed by the […] method. The obtained sensorgram was analyzed using Bia Evaluation Software (manufactured by GE Healthcare Japan Corp.), and the kinetic constant of each antibody was calculated.

| Kd [nM] | koff [s⁻¹] | kon [M⁻¹ s⁻¹] | Binder |
| --- | --- | --- | --- |
| < 2.35 | 0.000239 | > 102000 | B1 |
| < 6.74 | 0.000672 | > 100000 | B2 |
| < 8.59 | 0.000859 | > 100000 | B3 |
| < 3.92 | 0.000492 | > 126000 | B4 |
| < 6.83 | 0.000684 | > 100000 | B5 |
| < 4.05 | 0.000511 | > 126000 | B6 |
| < 7.03 | 0.000712 | > 101000 | B7 |
| < 7.49 | 0.000751 | > 100000 | B8 |
| < 4.38 | 0.000551 | > 126000 | B9 |
| < 4.26 | 0.000543 | > 127000 | B10 |
| < 7.45 | 0.00075 | > 101000 | B11 |
| < 1.86 | 0.000285 | > 153000 | B12 |
| < 2.3 | 0.000177 | > 77100 | B13 |
| < 9.77 | 0.000791 | > 81000 | B14 |
| < 2.19 | 0.000173 | > 79200 | B15 |
| < 2.85 | 0.00019 | > 66700 | B16 |
